Experimental findings from PMC9943658 are described below.

One assay concerns the target His-T7-hnRNP C1 ΔACIDIC (UniProt P07910). Nature of the assay: SEC. A general note: SEC sorts molecules by how far they enter the pores of the column.
For the next assay, the target named is His-T7-hnRNP C1 ΔRRM (UniProt P07910). Nature of the assay: SEC.

The stoichiometry N is a count of units in the complex or per binding partner.

“His-T7-hnRNP C1 ΔACIDIC (from UniProt P07910-2 1-293) (natural protein)” yielded a stoichiometry N in the assay with His-T7-hnRNP C1 ΔACIDIC of 2.

Take “His-T7-hnRNP C1 ΔRRM (from UniProt P07910-2 1-293) (natural protein)”: the stoichiometry N with His-T7-hnRNP C1 ΔRRM is 4.
